Data: publication PMC11864197 (Science Advances, 2025)
Blank lines part the entries; values can stand above or below the binder they belong to.

Columns and labels:
[1] = target: DDA1 (human, UniProt Q9BW61 1-102); experiment: cryo-EM structure
[2] = target: the molecule itself; experiment: multiple angle light scattering
[3] = target: Full-length DDB1-DET1-DDA1 complex co-expressed with Ube2e2 (human, UniProt Q7L5Y6;Q16531;Q9BW61); experiment: SEC
Chain of Full-length DDB1-DET1-DDA1 complex co-expressed with Ube2e2 (Q7L5Y6 whole entry, one chain of several): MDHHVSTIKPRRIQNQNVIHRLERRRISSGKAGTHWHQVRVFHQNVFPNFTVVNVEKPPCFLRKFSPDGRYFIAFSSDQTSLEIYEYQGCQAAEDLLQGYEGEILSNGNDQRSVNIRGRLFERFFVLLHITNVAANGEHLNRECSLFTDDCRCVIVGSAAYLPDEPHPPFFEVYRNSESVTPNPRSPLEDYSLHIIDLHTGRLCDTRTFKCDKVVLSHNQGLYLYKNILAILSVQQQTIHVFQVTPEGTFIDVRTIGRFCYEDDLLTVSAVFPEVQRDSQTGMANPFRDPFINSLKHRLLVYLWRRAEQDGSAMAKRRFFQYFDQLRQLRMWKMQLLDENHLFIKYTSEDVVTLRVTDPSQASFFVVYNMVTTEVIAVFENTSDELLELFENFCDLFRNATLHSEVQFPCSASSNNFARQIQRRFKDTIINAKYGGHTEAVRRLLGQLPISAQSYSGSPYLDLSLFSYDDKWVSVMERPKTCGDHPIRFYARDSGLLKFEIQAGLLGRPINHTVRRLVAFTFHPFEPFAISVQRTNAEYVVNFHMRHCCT

binding result [1]: binds
B1: DDB1(ΔBPB) (natural protein)
chain: MSYNYVVTAQKPTAVNGCVTGHFTSAEDLNLLIAKNTRLEIYVVTAEGLRPVKEVGMYGKIAVMELFRPKGESKDLLFILTAKYNACILEYKQSGESIDIITRAHGNVQDRIGRPSETGIIGIIDPECRMIGLRLYDGLFKVIPLDRDNKELKAFNIRLEELHVIDVKFLYGCQAPTICFVYQDPQGRHVKTYEVSLREKEFNKGPWKQENVEAEASMVIAVPEPFGGAIIIGQESITYHNGDKYLAIAPPIIKQSTIVCHNRVDPNGSRYLLGDMEGRLFMLLLEKEEQMDGTVTLKDLRVELLGETSIAECLTYLDNGVVFVGSRLGDSQLVKLNVDSNEQGSYVVAMETFTNLGPIVDMCVVDLERQGQGQLVTCSGAFKEGSLRIIRNGIGIQKLHIRTVPLYESPRKICYQEVSQCFGVLSSRIEVQDTSGGTTALRPSASTQALSSSVSSSKLFSSSTAPHETSFGEEVEVHNLLIIDQHTFEVLHAHQFLQNEYALSLVSCKLGKDPNTYFIVGTAMVYPEEAEPKQGRIVVFQYSDGKLQTVAEKEVKGAVYSMVEFNGKLLASINSTVRLYEWTTEKELRTECNHYNNIMALYLKTKGDFILVGDLMRSVLLLAYKPMEGNFEEIARDFNPNWMSAVEILDDDNFLGAENAFNLFVCQKDSAATTDEERQHLQEVGLFHLGEFVNVFCHGSLVMQNLGETSTPTQGSVLFGTVNGMIGLVTSLSESWYNLLLDMQNRLNKVIKSVGKIEHSFWRSFHTERKTEPATGFIDGDLIESFLDISRPKMQEVVANLQYDDGSGMKREATADDLIKVVEELTRIH

B2: COP1 RING domain (residues 126 to 208) (domain or fragment)
chain: SYEDKSNDFVCPICFDMIEEAYMTKCGHSFCYKCIHQSLEDNNRCPKCNYVVDNIDHLYPNFLVNELILKQKQRFEEKRFKLD
stoichiometry N [2]: 2

binding result [3]: binds
B3: Full-length Ube2e2 co-expressed with the DDD complex (enzyme)
chain: MSTEAQRVDDSPSTSGGSSDGDQRESVQQEPEREQVQPKKKEGKISSKTAAKLSTSAKRIQKELAEITLDPPPNCSAGPKGDNIYEWRSTILGPPGSVYEGGVFFLDITFSPDYPFKPPKVTFRTRIYHCNINSQGVICLDILKDNWSPALTISKVLLSICSLLTDCNPADPLVGSIATQYMTNRAEHDRMARQWTKRYAT
